The values that follow come from the Immune Epitope Database (IEDB).

In one test the target is HLA-A*24:02. In words: IEDB peptide-MHC binding, purified MHC/competitive/fluorescence; ≥ and ≤ were set here for values at or beyond the usual limits of such assays.
Test [1] concerns the target HLA-A*02:01. Described as above.
In a further test the target is HLA-A*11:01. The description is as above.
The target of another test is HLA-B*51:01. In words: IEDB peptide-MHC binding, purified MHC/competitive/radioactivity; filed as Kd, often an IC50 or EC50 that approximates it; ≥ and ≤ were set here for values at or beyond the usual limits of such assays.
In a further test the target is HLA-B*53:01. The description is as above.
A further test deals with HLA-B*07:02. Described as above.
The target in another test is HLA-B*54:01. The description is as above.
The target in another test is HLA-B*35:01. The test is described as above.
Test [2] concerns the target HLA-A*02:01. The description is as above.
Another test addresses HLA-A*03:01. In words: IEDB peptide-MHC binding, purified MHC/competitive/fluorescence; filed as Kd, often an IC50 or EC50 that approximates it; ≥ and ≤ were set here for values at or beyond the usual limits of such assays. The note with it: source organism: Escherichia coli O139:H28 str. E24377A.
In a further test the target is HLA-B*44:03. As to the kind of experiment: IEDB peptide-MHC binding, purified MHC/competitive/radioactivity; filed as Kd, often an IC50 or EC50 that approximates it; ≥ and ≤ were set here for values at or beyond the usual limits of such assays. The conditions noted are these: source organism: Dengue virus 4 Philippines/H241/1956.
The next test deals with HLA-B*40:01. The test is described as above. The note with it: source organism: Dengue virus 4 Philippines/H241/1956.
A further test deals with HLA-B*44:02. Described as above. The note with it: source organism: Dengue virus 4 Philippines/H241/1956.
The target of the next test is HLA-B*15:01. The test is described as above.
The target in a further test is HLA-A*26:01. The description is as above.
Another test concerns the target HLA-A*01:01. The description is as above. The note with it: source organism: Dengue virus 3 Martinique/1243/1999.
In the next test the target is HLA-A*30:02. The test is described as above.
Another test deals with HLA-A*68:01. Described as above. The note with it: source organism: Dengue virus 3 Martinique/1243/1999.
Setting [3] is: source organism: Zaire ebolavirus.
The mark [4] stands for this setting: source organism: SARS coronavirus Tor2.
Where [5] appears, read: source organism: Vaccinia virus WR.
[6] abbreviates: source organism: Lassa virus Josiah.
[7] abbreviates: source organism: Sudan ebolavirus.
Setting [8] is: source organism: Dengue virus 3 Martinique/1243/1999.
Setting [9] is: source organism: Triticum aestivum.
The mark [10] stands for this setting: source organism: Dengue virus 4 Philippines/H241/1956.

With YKLDISEAT, the values for the half-inhibitory concentration (IC50) with HLA-A*24:02 (setting [3]), with HLA-A*02:01 [1] (setting [3]) and with HLA-A*11:01 (setting [3]) were 29800 nM, not below 158000 nM and not below 139000 nM, respectively.
On to LPIDKCSRII, for which the Kd was 681 nM with HLA-B*51:01 (setting [4]); 603 nM with HLA-B*53:01 (setting [4]); 1400 nM with HLA-B*07:02 (setting [4]); 1140 nM in the test with HLA-B*54:01 (setting [4]); 2550 nM in the test with HLA-B*35:01 (setting [4]).
For IPSLFIESSI, the Kd was 1900 nM with HLA-B*51:01 (setting [5]); 1980 nM with HLA-B*53:01 (setting [5]); 680 nM with HLA-B*07:02 (setting [5]); 429 nM with HLA-B*54:01 (setting [5]); not below 69900 nM with HLA-B*35:01 (setting [5]).
Turning to RVIEVLQRA, the Kd with HLA-A*02:01 [2] (source organism: HIV-1 M:B_MN) was 25 nM.
For the sequence MPYVFTLLF, the Kd with HLA-B*51:01 (setting [4]) turned out to be 4.07 nM; with HLA-B*53:01 (setting [4]), 0.124 nM; with HLA-B*07:02 (setting [4]) it was 109 nM; with HLA-B*54:01 (setting [4]), 30.6 nM; with HLA-B*35:01 (setting [4]), 0.59 nM.
Take LPFHRWHTM: the Kd in the test with HLA-B*51:01 (setting [4]) came out at 11.1 nM; in the test with HLA-B*53:01 (setting [4]) it was 100 nM; with HLA-B*07:02 (setting [4]), 8.4 nM; with HLA-B*54:01 (setting [4]) it was 274 nM; in the test with HLA-B*35:01 (setting [4]) it was 7.16 nM.
For VPAAIMMIL, the Kd in the test with HLA-B*51:01 (setting [5]) is not below 77500 nM; with HLA-B*53:01 (setting [5]), 19300 nM; with HLA-B*07:02 (setting [5]) it was not below 76900 nM; with HLA-B*54:01 (setting [5]) it was not below 78100 nM; with HLA-B*35:01 (setting [5]), 18700 nM.
Regarding ALPRNMVIT, the Kd with HLA-A*02:01 [2] (setting [6]) is 12500 nM.
Turning to CLLNYSGLK, the Kd with HLA-A*03:01 turned out to be 27.8 nM.
On to GEMCEDTVTY, for which the Kd with HLA-B*44:03 came out at 104 nM; with HLA-B*40:01, 918 nM; in the test with HLA-B*44:02, 35.4 nM.
Take LIWTLDANI: the IC50 was not below 80400 nM with HLA-A*24:02 (setting [7]), 480 nM with HLA-A*02:01 [1] (setting [7]) and not below 166000 nM with HLA-A*11:01 (setting [7]).
As for LEADYVESM, the Kd in the test with HLA-B*15:01 (setting [5]) amounted to 434 nM.
For the sequence TQVPFCSHHF, the Kd in the test with HLA-B*15:01 (source organism: Dengue virus 2 Jamaica/1409/1983) was found to be 2.37 nM.
Turning to CPAVAVHDF, the Kd in the test with HLA-B*51:01 (setting [4]) is 241 nM; in the test with HLA-B*53:01 (setting [4]) it was 27.6 nM; with HLA-B*07:02 (setting [4]) it was 1640 nM; with HLA-B*54:01 (setting [4]), 7480 nM; with HLA-B*35:01 (setting [4]), 14.4 nM.
As to FLDEFMEAV, the Kd with HLA-A*02:01 [2] (source organism: Homo sapiens) is 8.3 nM.
Regarding FLLSLVEFF, in the test with HLA-B*15:01 (setting [5]), the Kd came out at 0.816 nM.
As for LAKKSYVVF, in the test with HLA-B*15:01 (source organism: Vaccinia virus Copenhagen), the Kd was determined as 97.3 nM.
As to MTIDLDPVIY, the Kd is 5.59 nM in the test with HLA-A*26:01 (setting [8]); 2990 nM with HLA-A*01:01; not below 25400 nM with HLA-A*30:02 (setting [8]); 5.32 nM in the test with HLA-B*15:01 (setting [8]); 11.9 nM in the test with HLA-A*68:01; 24.8 nM with HLA-B*35:01 (setting [8]).
For the sequence IPEQSQCQAI, the Kd with HLA-B*51:01 (setting [9]) is 774 nM; with HLA-B*53:01 (setting [9]), 3890 nM; in the test with HLA-B*07:02 (setting [9]), 5900 nM; with HLA-B*54:01 (setting [9]) it was not below 25600 nM; with HLA-B*35:01 (setting [9]), 6050 nM.
Regarding VPLPCQLMYA, the Kd turned out to be 621 nM with HLA-B*51:01 (setting [5]); 460 nM with HLA-B*53:01 (setting [5]); 7430 nM with HLA-B*07:02 (setting [5]); 0.136 nM with HLA-B*54:01 (setting [5]); 2330 nM in the test with HLA-B*35:01 (setting [5]).
Turning to AVFKMSPGY, the results for the Kd with HLA-A*26:01 (setting [10]), with HLA-A*30:02 (setting [10]) and with HLA-B*15:01 (setting [10]) were 1920 nM, 82.2 nM and 14.3 nM, respectively.
Take LIALSVLAVL: in the test with HLA-A*02:01 [2] (setting [6]), the Kd came to 2780 nM.

What is called IC50 is the concentration that inhibits the measured activity by half. The low end stands for greater potency, the high end for weaker potency. Broadly, the Kd is the concentration at which binding is half-saturated.
